{"source": "patent US20070184488", "key": {"[1]": {"biological_target": "T1, EVNFAAEF (SEQ ID NO: 259)", "T1 chain": "EVNFAAEF"}, "[2]": {"biological_target": "T2, EVNFAVEF (SEQ ID NO: 261)", "T2 chain": "EVNFAVEF"}, "[3]": {"biological_target": "T3, EVNFEAEF (SEQ ID NO: 260)", "T3 chain": "EVNFEAEF"}, "[4]": {"biological_target": "T4, EVNFEVEF (SEQ ID NO: 262)", "T4 chain": "EVNFEVEF"}, "[5]": {"biological_target": "T5, EVNLAAEF (SEQ ID NO: 258)", "T5 chain": "EVNLAAEF"}, "[6]": {"biological_target": "T6, EVNLDAEF, Swedish mutant APP 8-mer peptide (SEQ ID NO: 257)", "T6 chain": "EVNLDAEF"}, "[7]": {"biological_target": "T7, P1′ peptide library component with P1′=Glu", "T7 chain": "EVNLEAEF"}, "[8]": {"biological_target": "T8, P1′ peptide library component with P1′=Gly", "T8 chain": "EVNLGAEF"}, "[9]": {"biological_target": "T9, P1′ peptide library component with P1′=Pro", "T9 chain": "EVNLPAEF"}}}
{"protein": "β-secretase (protein) ETDEEPEEPGRRGSFVEMVDNLRGKSGQGYYVEMTVGSPPQTLNILVDTGSSNFAVGAAPHPFLHRYYQRQLSSTYRDLRKGVYVPYTQGKWEGELGTDLVSIPHGPNVTVRANIAAITESDKFFINGSNWEGILGLAYAEIARPDDSLEPFFDSLVKQTHVPNLFSLQLCGAGFPLNQSEVLASVGGSMIIGGIDHSLYTGSLWYTPIRREWYYEVIIVRVEINGQDLKMDCKEYNYDKSIVDSGTTNLRLPKKVFEAAVKSIKAASSTEKFPDGFWLGEQLVCWQAGTTPWNIFPVISLYLMGEVTNQSFRITILPQQYLRPVEDVATSQDDCYKFAISQSSTGTVMGAVIMEGFYVVFDRARKRIGFAVSACHVHDEFRTAAVEGPFVTLDMEDCGYNIPQTDESTLMTIAY", "values": [{"measurement": "Relative rates of hydrolysis (relative to SEQ ID NO: 257)", "setting": "[1]", "result": 17}, {"measurement": "Relative rates of hydrolysis (relative to SEQ ID NO: 257)", "setting": "[2]", "result": 30}, {"measurement": "Relative rates of hydrolysis (relative to SEQ ID NO: 257)", "setting": "[3]", "result": 17}, {"measurement": "Relative rates of hydrolysis (relative to SEQ ID NO: 257)", "setting": "[4]", "result": 60}, {"measurement": "Relative rates of hydrolysis (relative to SEQ ID NO: 257)", "setting": "[5]", "result": 10}, {"measurement": "depletion of full length peptide substrate (LC/MS)", "setting": "[5]", "result": "most rapidly hydrolyzed by β-secretase (P1′=Glu and P1′=Ala)"}, {"measurement": "formation of C-terminal cleavage products (LC/MS)", "setting": "[5]", "result": "more rapid and comparable rates of formation of the products represented by P1′=Ala and P1′=Glu"}, {"measurement": "Relative rates of hydrolysis (relative to SEQ ID NO: 257)", "setting": "[6]", "result": 1}, {"measurement": "depletion of full length peptide substrate (LC/MS)", "setting": "[6]", "result": "one intermediate sequence (P1′=Asp-the residue normally present in Swedish mutant APP)"}, {"measurement": "formation of C-terminal cleavage products (LC/MS)", "setting": "[6]", "result": "the P1′=Asp product shows formation consistent with this residue being less conducive to β-secretase hydrolysis than either Glu or Ala"}, {"measurement": "depletion of full length peptide substrate (LC/MS)", "setting": "[7]", "result": "most rapidly hydrolyzed by β-secretase (P1′=Glu and P1′=Ala)"}, {"measurement": "formation of C-terminal cleavage products (LC/MS)", "setting": "[7]", "result": "more rapid and comparable rates of formation of the products represented by P1′=Ala and P1′=Glu"}, {"measurement": "depletion of full length peptide substrate (LC/MS)", "setting": "[8]", "result": "two peptides that were not cleaved by β-secretase (P1′=Gly and P1′=Pro)"}, {"measurement": "depletion of full length peptide substrate (LC/MS)", "setting": "[9]", "result": "two peptides that were not cleaved by β-secretase (P1′=Gly and P1′=Pro)"}]}
